Tests used:
CHO-K1 cells [1] = assay: Luminescence activity of KAZ mutants expressed in animal cultured cells, culture medium and cell extract (Example 6); type: cell-based, Chinese hamster; conditions: pcDNA3-GLsp- vector in CHO-K1, coelenterazine substrate
Experimental: (§1) Chinese hamster ovary cell line CHO-K1 was cultured in Ham's F-12 medium (manufactured by Wako Pure Chemical Industries, Ltd.) supplemented with 10% (v/v) fetal bovine serum (manufactured by Biowest Inc.). The CHO-K1 cells were seeded in a 6-well plate in 1×10^5 cells/well/2 mL medium (n=2) and cultured in an incubator at 37° C. in 5% (v/v) CO2. After 24 hours, the purified recombinant plasmid was transfected to CHO-K1 cells using a FuGene HD transfection kit (manufactured by Promega Corp.) and the cells were used for subsequent experiment. Specifically, 1 μg of the recombinant plasmid, 0.1 μg of the internal standard vector pGL4.13 [Luc2/sv40] and 3 μL of FuGene HD were added to 100 μL of the medium and allowed to stand at room temperature for 15 minutes. Subsequently, 100 μL of the DNA-FuGene complex solution was added to the cells in the 6-well plate. After incubation for 46 hours, the culture medium was collected. On the other hand, the KAZ mutant expressed in the cells was washed 3 times with 3 mL of 1×PBS, then suspended in 1 mL of 1×PBS and disrupted by sonication on ice. The resultant cell extract of WNanoKAZ was used as the enzyme solution.
(§2) After adding 5 μL of the culture medium and cell extract obtained in EXAMPLE 5 to 100 μL of 30 mM Tris-HCl (pH 7.6)-10 mM EDTA (Wako Pure Chemical Industries, Ltd.) containing 1 μg of coelenterazine (manufactured by JNC Corp.), a luminescence reaction was started. Luminescence activity was measured for 60 seconds using a luminometer (manufactured by Atto Inc.: AB2200). The maximum intensity of luminescence (Imax) was given as a percentage (%).

[2] = Substrate specificity of WNanoKAZ mutants, crude enzyme solution (Example 11); type: biochemical; conditions: for Relative luminescence activity, 6h-CTZ, Imax / Relative luminescence activity, 6h-CTZ, Int.: substrate 6h-CTZ; for Relative luminescence activity, 6h-f-CTZ, Imax / Relative luminescence activity, 6h-f-CTZ, Int.: substrate 6h-f-CTZ; for Relative luminescence activity, CTZ, Imax / Relative luminescence activity, CTZ, Int.: substrate CTZ
Experimental: (§3) DTT was added to the crude enzyme solution obtained in EXAMPLE 9 at a final concentration of 1 mM, and then allowed to stand in an ice-water bath over 8 hours or more. After 1 μL of the crude enzyme solution was added to 100 μL of 30 mM Tris-HCl (pH 7.6)-10 mM EDTA (Wako Pure Chemical Industries, Ltd.) containing 1 μg of coelenterazine (manufactured by JNC Corp.), a luminescence reaction was started. Luminescence activity was measured for 60 seconds using a luminometer (manufactured by Atto Inc.: AB2200). The maximum intensity of luminescence (Imax) was given as a relative luminescence activity (rlu).
Each of the coelenterazine analogues used for substrate specificity studies was synthesized by the methods described in publications. Specifically, bis-coelenterazine was synthesized by the method described in Nakamura et al. (1997) Tetrahedron Lett. 38: 6405-6406, furimazine by the method described in Hall et al. (2012) ACS Chem. Biol. […], and, 6h-coelenterazine, f-coelenterazine and 6h-f-coelenterazine by the method described in Inouye et al (2013) Biochem. Biophys. Res. Commun. 437: 23-28. Luminescence activity was measured by the same method as in EXAMPLE 10, using the crude enzyme solution obtained in EXAMPLE 10, in which coelenterazine or its analogue was used as the luminescence substrate.

[3] = Luminescence activity of WNanoKAZ in crude enzyme solution (Example 3); type: biochemical; conditions: for Relative luminescence activity (Imax): pCold-ZZ-P- vector in E. coli, KAZ = 1.0
Experimental: In order to express WNanoKAZ in E. coli, pCold-ZZ-P-WNanoKAZ obtained in EXAMPLE 1 was used. The E. coli BL21 strain (Novagen, Madison, Wis.) was used as a host cell. The BL21 strain carrying the recombinant plasmid was incubated in 5 mL of Luria-Bertani medium (hereinafter designated as LB medium) containing ampicillin (50 μg/mL) at 37° C. for 17 hours. The seed culture of 0.1 mL was inoculated to 10 mL of LB medium and incubated for 3 hours, followed by cooling in freezing water for 1 hour. IPTG was added to the culture medium at a final concentration of 0.1 mM, followed by incubation at 15° C. for further 19 hours. After completion of the incubation, 1 mL of the culture medium was collected by centrifugation at 10,000 rpm for 2 minutes. The collected E. coli cells were suspended in 0.5 mL of 30 mM Tris-HCl (pH 7.6)-10 mM EDTA. The cells were disrupted by sonication for 3 seconds using a Branson Model 250 Sonifire (Danbury, Conn.) to give a crude enzyme solution. Then, DTT was added to the crude enzyme solution at a final concentration of 1 mM. After the mixture was allowed to stand in freezing water over 8 hours or more, the luminescence activity was measured.
1 μl of the crude enzyme solution obtained in EXAMPLE 2 was added to 100 μl of 30 mM Trix-HCl (pH 7.6)-10 mM EDTA (Wako Pure Chemical Industries, Ltd.) containing 1 μg of coelenterazine (manufactured by JINC Corp.), luminescence reaction was started. Luminescence activity was measured for 60 seconds using a luminometer (manufactured by Atto Inc.: AB2200); the maximum intensity of luminescence (Imax) was given as a relative luminescence activity.

CHO-K1 cells [4] = assay: Luminescence activity of WNanoKAZ mutants expressed by secretory expression vectors in animal culture cells (Example 13); type: cell-based, Chinese hamster; conditions: pcDNA3-GLsp- secretory vector, coelenterazine substrate
Experimental: as §1, §2
The recombinant plasmid obtained in EXAMPLE 12 or 4 was purified in a manner similar to EXAMPLE 5 and dissolved in sterile water. The firefly luciferase vector (pGL4.13 [Luc2/sv40]: manufactured by Promega Corp.) was similarly prepared and used as an internal standard.
Culture medium containing two amino acid-substituted KAZ mutants and three amino acid-substituted KAZ mutants and cell extracts of the KAZ mutants as the enzyme solutions were prepared by the same procedure as in EXAMPLE 9.
The resultant culture medium and cell extracts were used to measure luminescence activity as in EXAMPLE 6.

[5] = Luminescence activity of ZZ-fused WNanoKAZ mutants in crude enzyme solution (Example 10); type: biochemical; conditions: coelenterazine substrate; for Relative luminescence activity (Imax): ZZ-fused, pCold-ZZ-P- vector in E. coli, KAZ = 1.0
Experimental: In order to express ZZ-fused KAZ mutants in E. coli, the recombinant plasmid produced in EXAMPLE 8 and pCold-ZZ-P-WNanoKAZ produced in EXAMPLE 1 were used. The crude enzyme solution was prepared in a manner similar to EXAMPLE 2, using the E. coli BL21 strain (Novagen, Madison, Wis.) as a host cell. Then, 5 μL of the crude enzyme solution obtained was subjected to SDS-PAGE analysis to confirm the protein expression in all mutants. In FIG. 1, M and 1 to 8 represent as follows. M: molecular weight size markers; 1: ZZ-P-KAZ; 2: ZZ-P-WNanoKAZ; 3: ZZ-P-WNanoKAZ-V90I; 4: ZZ-P-WNanoKAZ-E115P; 5: ZZ-P-WNanoKAZ-K124Q; 6: ZZ-P-WNanoKAZ-I138Y; 7: ZZ-P-WNanoKAZ-R166N; 8: ZZ-P-dnKAZ. It was confirmed from FIG. 1 that all mutants were expressed.
as §3

[6] = crude enzyme solution, coelenterazine substrate

Row | Relative luminescence activity, Furimazine, Imax [2] | Relative luminescence activity, bis-CTZ, Imax [2] | Relative luminescence activity, f-CTZ, Imax [2] | Relative luminescence activity, h-CTZ, Imax [2] | Relative luminescence activity, Furimazine, Int. [2] | Relative luminescence activity, bis-CTZ, Int. [2] | Relative luminescence activity, f-CTZ, Int. [2] | Relative luminescence activity, h-CTZ, Int. [2] | Relative luminescence activity, 6h-CTZ, Imax [2] | Relative luminescence activity, 6h-CTZ, Int. [2] | Relative luminescence activity, 6h-f-CTZ, Imax [2] | Relative luminescence activity, 6h-f-CTZ, Int. [2] | Relative luminescence activity, CTZ, Imax [2] | Relative luminescence activity, CTZ, Int. [2] | Relative luminescence activity (Imax) [3, 6] | Relative luminescence activity (Imax) [5] | Molecule | Relative luminescence activity (%, Imax) Cell extracts (CHO-K1 cells [1]) [%] | Relative luminescence activity (%, Imax) Culture medium (CHO-K1 cells [1]) [%] | Relative luminescence activity (%, Imax) Cell extracts (CHO-K1 cells [4]) [%] | Relative luminescence activity (%, Imax) Culture medium (CHO-K1 cells [4]) [%] | also measured
1 | 26 | 32 | 48 | 64 | 29 | 24 | 32 | 33 | 8.9 | 7.5 | 41 | 34 | 64 | 56 | 64 | 64 | WNanoKAZ: chimeric protein: positions 1-82 of native KAZ and 83-169 of nanoKAZ; SEQ ID NO: 6; I90V, P115E, Q124K, Y138I, N166R (protein, chimeric protein: positions 1-82 of native KAZ and 83-169 of nanoKAZ; I90V, P115E, Q124K, Y138I, N166R) FTLADFVGDWQQTAGYNQDQVLEQGGLSSLFQALGVSVTPIQKVVLSGENGLKADIHVIIPYEGLSGFQMGLIEMIFKVVYPVDDHHFKVILHYGTLVIDGVTPNMIDYFGRPYEGIAVFDGKKITVTGTLWNGNKIIDERLINPDGSLLFRVTINGVTGWRLCERILA | 22 | <0.01 | 22 | <0.01 | fold higher activity than the other coelenterazine analogues when coelenterazine was used as the substrate ([2]; coelenterazine substrate): 8.6 fold; fold higher activity than that of dnKAZ ([3]; coelenterazine used as the substrate, as shown in EXAMPLE 3): 64 fold; fold higher activity than native KAZ ([3]; crude enzyme solution, coelenterazine substrate, Imax): 64 fold; fold higher activity than native KAZ ([5]; Imax): 64 fold; fold higher activity than the relative activity 7.4 of dnKAZ ([5]; Imax): 8.6 fold
2 | 0.2 | 0.5 | 1.0 | 1.2 | 0.3 | 0.1 | 0.9 | 0.9 | 0.08 | 0.1 | 0.3 | 0.4 | 1.0 | 1.0 | 1.0 | 1.0 | KAZ: 19 kDa protein of native Oplophorus luciferase having luminescence activity; SEQ ID NO: 2 (protein, listed as Oplophorus gracilirostris) FTLADFVGDWQQTAGYNQDQVLEQGGLSSLFQALGVSVTPIQKVVLSGENGLKADIHVIIPYEGLSGFQMGLIEMIFKVVYPVDDHHFKIILHYGTLVIDGVTPNMIDYFGRPYPGIAVFDGKQITVTGTLWNGNKIYDERLINPDGSLLFRVTINGVTGWRLCENILA | 0.2 | 0.1 | 0.2 | 0.1 | –

Reference: patent US10184116B2, “Chimeric genes for the catalytic protein of Oplophorus luciferase and use thereof” (JNC CORPORATION, priority 2014, dated 2019)
